Assay type in all cases: cell-based
For assay [1], the system named is HeLa cells. Nature of the assay: Parkin colocalization with mitochondria scored by confocal microscopy. The settings on record: for YFP-Parkin (wild type or indicated mutant) colocalization with mitochondria, % of cells: HeLa cells, 10 μM CCCP, 1 hour; for cells with YFP-Parkin co-localized with TMRE: HeLa, no CCCP, YFP-Parkin alone or with PINK1-myc 1:4. In outline: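 Transfected HeLa cells fixed 12–24 h post-transfection in 4% paraformaldehyde. Cells immunostained for mitochondrial markers and imaged by confocal microscopy. Parkin recruitment to mitochondria assessed by line-scan colocalization.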

Assay [2] deals with HeLa cells. Nature of the assay: Live cell imaging, time to Parkin translocation. The settings on record: mCherry-Parkin alone (CCCP line) or with PINK1-YFP 1:1, 10 μM CCCP. How it is done:
FIGS. 13A-13D show the kinetics of Parkin recruitment are modulated by PINK1 expression. […] The cells were imaged live following the addition of 10 μM CCCP in serum at time point 0 min FIG. 13B lists the vectors used for transfection of HeLa cells with mCherry-Parkin and the indicated construct in a 1:1 ratio were treated as in (A) and imaged live (1 frame/minute) following the addition of CCCP. Time to the beginning of Parkin translocation was defined as the first appearance of puncta in ≧2 quandrants of the cell for ≧2 consecutive images for ≧6 cells in ≧3 independent experiments. […] Cells were loaded with TMRE (red) to stain polarized mitochondria. Cells were not treated with CCCP. Scale bars in last image=10 μm. FIG. 13D is a graph that quantitates results in cells treated as described in FIG. 13C, which were scored for co-localization between YFP-Parkin and TMRE. ≧50 cells/experiment were scored in ≧3 independent experiments.
(§1) Confocal microscopy of fixed samples, scoring of Parkin recruitment and Parkin-induced mitophagy, and live cell imageing were performed as described previously (Narendra (2008) J Cell Biol 183: 795-803). Experiments in Mfn1/2 null cells were performed as described previously with minor modifications described in the supplemental methods (Narendra (2008) J Cell Biol 183: 795-803).

The subject of assay [3] is HeLa cells. The assay is described as follows: Parkin-induced mitophagy, loss of mitochondria by immunocytochemistry. How it is done: Cultured cells seeded in borosilicate chamber slides (Thermo Fisher Scientific) were transfected or cotransfected with YFP-Parkin, ECFP-Parkin, mCherry-Parkin, DsRed-Mito (Clontech Laboratories, Inc.), pcDNA3.1 (Invitrogen), vMIA, and/or Drp1K38A constructs using Fugene 6 (Roche). Parkin-myc was a gift from M. Cookson (National Institutes of Health, Bethesda, Md.). Cells were fixed 12-24 hours after transfection with 4% paraformaldehyde in PBS. Cells were stained with following primary antibodies: mouse monoclonal cytochrome c (BD), rabbit polyclonal Tom20 (Santa Cruz Biotechnology, Inc.), mouse monoclonal Parkin PRK8 (Santa Cruz Biotechnology, Inc.), rabbit polyclonal PMP70 (Invitrogen), and/or mouse monoclonal TRAP1 (Abcam); and with the following secondary antibodies: mouse and/or rabbit Alexa 488, 594, and 633 (Invitrogen). For assessment of mitochondrial membrane potential, cells were pulsed with 50 nM Mito-Tracker red (Invitrogen) for 15 min, washed, and incubated for an additional 10 minutes before fixation or imaging. For assessment of cell metabolic potential, cell nuclei were stained with Hoechst 33342 (Invitrogen).
Confocal microscopy of fixed samples, scoring of Parkin recruitment and Parkininduced mitophagy, and live cell imaging were performed as described previously (Narendra (2008) J Cell Biol 183: 795-803). Experiments in Mfn1/2 null cells were performed as described previously with minor modifications.
as §1

Several values for one entry are separate records, joined by “and”; a condition that tells them apart may be missing. Identical values can stand only once.

As to `N#CC(C#N)=NNc1cccc(Cl)c1` [CCCP, carbonyl cyanide m-chlorophenylhydrazone], the “YFP-Parkin (wild type or indicated mutant) colocalization with mitochondria, % of cells” value with HeLa cells [1] was 78.49±2.61% and 96.0±3.5%. Also, in the assay on HeLa cells [2], the “time to translocation of Parkin” value is 32.0 ± 5.4 min.

B1: PINK1: exogenously expressed wild type PINK1 (V5 or myc tagged) (protein, UniProt Q9BXM7 78-581, looked up)
Serine/threonine-protein …: AARLQRQFVVRAWGCAGPCGRAVFLAFGLGLGLIEEKQAESRRAVSACQEIQAIFTQKSKPGPDPLDTRRLQGFRLEEYLIGQSIGKGCSAAVYEATMPTLPQNLEVTKSTGLLPGRGPGTSAPGEGQERAPGAPAFPLAIKMMWNISAGSSSEAILNTMSQELVPASRVALAGEYGAVTYRKSKRGPKQLAPHPNIIRVLRAFTSSVPLLPGALVDYPDVLPSRLHPEGLGHGRTLFLVMKNYPCTLRQYLCVNTPSPRLAAMMLLQLLEGVDHLVQQGIAHRDLKSDNILVELDPDGCPWLVIADFGCCLADESIGLQLPFSSWYVDRGGNGCLMAPEVSTARPGPRAVIDYSKADAWAVGAIAYEIFGLVNPFYGQGKAHLESRSYQEAQLPALPESVPPDVRQLVRALLQREASKRPSARVAANVLHLSLWGEHILALKNLKLDKMVGWLLQQSAATLLANRLTEKCCVETKMKMLFLANLECETLCQAALLLCSWRAAL
modifications: V5 or myc tag
B1: the “cells with YFP-Parkin co-localized with TMRE” value in the assay with HeLa cells [1] amounted to 45.3±7.6%. In addition, the “cells with no mitochondria” value in the assay with HeLa cells [3] (HeLa, co-transfection with Parkin, 96 hours, absence of CCCP) was determined as 42.1±7.3%. Besides, the “time to translocation of Parkin” value with HeLa cells [2] amounted to 5.0 ± 1.5 min.

B2: YFP-Parkin: YFP-tagged Parkin E3 ligase expressed from a transfected vector (protein, UniProt O60260 1-465, looked up)
E3 ubiquitin-protein ligase …: MIVFVRFNSSHGFPVEVDSDTSIFQLKEVVAKRQGVPADQLRVIFAGKELRNDWTVQNCDLDQQSIVHIVQRPWRKGQEMNATGGDDPRNAAGGCEREPQSLTRVDLSSSVLPGDSVGLAVILHTDSRKDSPPAGSPAGRSIYNSFYVYCKGPCQRVQPGKLRVQCSTCRQATLTLTQGPSCWDDVLIPNRMSGECQSPHCPGTSAEFFFKCGAHPTSDKETSVALHLIATNSRNITCITCTDVRSPVLVFQCNSRHVICLDCFHLYCVTRLNDRQFVHDPQLGYSLPCVAGCPNSLIKELHHFRILGEEQYNRYQQYGAEECVLQMGGVLCPRPGCGAGLLPEPDQRKVTCEGGNGLGCGFAFCRECKEAYHEGECSAVFEASGTTTQAYRVDERAAEQARWEAASKETIKKTTKPCPRCHVPVEKNGGCMHMKCPQPQCRLEWCWNCGCEWNRVCMGDHWFDV
modifications: YFP fusion
notes: YFP-tagged Parkin E3 ligase expressed from a transfected vector
For B2, in the assay with HeLa cells [1], the “YFP-Parkin (wild type or indicated mutant) colocalization with mitochondria, % of cells” value is recorded as 94.7±5.8% and the “cells with YFP-Parkin co-localized with TMRE” value came out at 0±0%. In the assay on HeLa cells [3] (HeLa expressing YFP-Parkin variant, CCCP 24 hours), the “cells with no mitochondria” value is on record as 59.0±15.1%. The “mitochondrial mass in Parkin-expressing cells” value with HeLa cells [3] (HeLa, 10 μM CCCP, 12 hours) is listed as “grossly reduced”. Moreover, the “mitochondria detectable in Parkin-expressing cells (Tom20, cytochrome c, TRAP1)” value with HeLa cells [3] (HeLa, 10 μM CCCP, 48 hours) is listed as “no mitochondria remained detectable”.

The values are drawn from patent US20120277286A1, “COMPOSITIONS AND METHODS FOR THE TREATMENT OR PREVENTION OF MITOCHONDRIAL DISEASES” (The Government of the USA, as represented by the Secretary, …, priority 2009, published 2012).
